Laboratory results from the nanobody polyreactivity screen of Harvey et al. (2022).

Experiment: yeast display, Sf9 membrane polyspecificity reagent, FACS + sequencing; frameworks hold sequencing errors
Outline: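 Nanobodies from a synthetic yeast display library (Saccharomyces cerevisiae BJ5465), induced 36–48 hours with galactose, were stained 1 hour at 4 °C with 10% biotinylated, detergent-solubilized Sf9 membrane reagent, enriched on streptavidin microbeads, then FACS-sorted. Anti-HA (expression) and streptavidin (reagent binding) fluorescence set low and high (top ~1%) gates. Polyreactivity labels come from the gate of origin. Genes were colony-PCR amplified, MiSeq 2 × 250 sequenced and filtered by CDR length.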

| Sequence | polyreactivity (PSR sort gate) |
| --- | --- |
| QVQLVESGGGLVQAGGSLRLSCAASGITFYVYAMGWYRQAPGKERELVAAISRRGGSTSYADSVKGRFTISRDNAKNTVYLQMNSLKPEDTAVYYCAAGPFYGGIVRRYDYWGQGTQVTVSS | low polyreactivity |
| QVQLVESGGGLVQAGGSLRLSCAASGITFYYNAMGWYRQAPGKERELVAAIRSAGSTYYADSVKGRFTISRDNAKNTVYLQMNSLKPEDTAVYYCAAEDGNTDQVRVYWIMDYWGQGTQVTVSS | low polyreactivity |
| QVQLVESGGGLVQAGGSLRLSCAASGITFYYTMGWYRQAPGKERELVATISYDGTSTYYADSVKGRFTISRHNEKNTVYLHMNSLKPEDTAVYYSSAYGTVVTLNDYWGQGTQVTVSS | low polyreactivity |
| QVQLVESGGGLVQAGGSLRLSCAASGITFYYYAKGWYRQAPGKEREFVAAINWSGTSTYYADSVKGRFTISRDNAKNTVYLQMNSLKPEDTAVYYCNAERGRSFWWAYDYWGQGTQVTVSS | low polyreactivity |
| QVQLVESGGGLVQAGGSLRLSCAASGITFYYYAMGWYRQAPGKERELVAAINSGGITNYADSVKGRFTISRDNAKNTVYLQMNSLKPEDTAVYYCAASSGFRYRYGYWGQGTQVTVSS | high polyreactivity |
| QVQLVESGGGLVQAGGSLRLSCAASGITFYYYAMGWYRQAPGKERELVAAISFRGGSTYYADSVKGRFTISRDNAKNTVYLQMNSLIPEDTAVYYCAAETSPSWYTWVTYDYWGQGTQVTVSS | high polyreactivity |
| QVQLVESGGGLVQAGGSLRLSCAASGITFYYYAMGWYRQAPGKERELVAAISFRGGSTYYADSVKGRFTISRDNAKNTVYLQMNSLKPEDTAVYYCAKAWSYTDPPRGDYWGQGTQVTVSS | high polyreactivity |
| QVQLVESGGGLVQAGGSLRLSCAASGITFYYYAMGWYRQAPGKERELVAAITVNGGTTYYADSVKGRFTISRDNAKNTVYLQMNSLKPEDTAVYYCNADGTFEYDYWGQGTQVTVSS | low polyreactivity |
| QVQLVESGGGLVQAGGSLRLSCAASGITFYYYAMRWYRQAPGKERELVAAISRGGSTYYADSVKGRFTISCDNAKNTVYLQMNSLKPEDTAVYYCNAYTTGYLFGYWGQGTQVTVSS | high polyreactivity |
| QVQLVESGGGLVQAGGSLRLSCAASGITFYYYGMGWYRQAPGKERELVAAITTGGNTNYADSVKGRFTISRDNAKNTVYLQMNSLKPEDTAVYYCAAEYRIPYFFTYGYWGQGTQVTVSS | high polyreactivity |
| QVQLVESGGGLVQAGGSLRLSCAASGITIDYYAMGWYRQAPGKERELVAAISSVGNTNYADSVKGRFTISRDNAKNTVYLQMNSLKPEDTAVYYCAARAYGQRLYRVWSGYGYWGQGTQVTVSS | high polyreactivity |
| QVQLVESGGGLVQAGGSLRLSCAASGITIIHNAMGWYRQAPGKERELVAAITTSDGSTYYADSVKGRFTISRDNAKNTVYLQMNSLKPEDTAVYYCAARGRHSGYYSFPYYYWGQGTQVTVSS | low polyreactivity |
| QVQLVESGGGLVQAGGSLRLSCAASGITIVLYAMGWYRQAPGKERELVAAINIDGNTNYADSVKGRFTISRDNAKNTVYLQMNSLKPEDTAVYYCATYYYYPSWYLLYGEYNYWGQGTQVTVSS | low polyreactivity |
| QVQLVESGGGLVQAGGSLRLSCAASGITIYKYAMGWYRQAPGKERELVAAITRGGSTYYADSVKGRFTISRDNAKNSVYLQMNSLKPEDTAVYYCNKVYHWQTPGFGYGYWGQGTQVTVSS | high polyreactivity |
| QVQLVESGGGLVQAGGSLRLSCAASGITLEVYAMGWYRQAPGKERELVAAITDSGGRTYYADSVKGRFTISRDNAKNTVYLQMNSLKPEDTAVYYCAADDTRVYGAGEYWGQGTQVTVSS | low polyreactivity |
| QVQLVESGGGLVQAGGSLRLSCAASGITLGYYAMGWYRQAPGKERELVAAISYRGGNTYYADSVKGRFTISRDNAMKTVYLQMNSLKPEDSAVYYCAAYDEYYGYDYWGQGTQVTVSS | low polyreactivity |
| QVQLVESGGGLVQAGGSLRLSCAASGITLKKYAMVWYRQAPGKERELVAAISIRGTSTYYADSVKGRFTISRDNAKNSVFLQMNSLKPEDTAVYYFAALYVVGDVRSGYWGQCTQVTVSS | high polyreactivity |
| QVQLVESGGGLVQAGGSLRLSCAASGITLLGNTMGWYRQAPGKERELVAAIRTNSGRTYYADSVKGRFTISRDNAKNTVYLQMNSLKPEDTAVYYCAKRYFSYLGREMDYWGQGTQVTVSS | high polyreactivity |
| QVQLVESGGGLVQAGGSLRLSCAASGITLLYYAMGWYRQAPGKERELVAVIDWSGGDTYYADSVKGRFTISRDNAKNTVYLQMNSLKPEDTAVYYCARGSRLVYRRSGFDYWGQGTQVTVSS | low polyreactivity |
| QVQLVESGGGLVQAGGSLRLSCAASGITLNGYVMRWYRQAPGKEREFVAVISSRGGSTYYADSVKGRFTISRDNAKNTVYLQMNSLKPEDTAVYYCAARYVREYNYWGQGTQVTVSS | high polyreactivity |
| QVQLVESGGGLVQAGGSLRLSCAASGITLNRNAMGWYRQAPGKERELVARISRRGGTTYYADSVKGRFTISRDNAKNTVYLQMNSLKPEDTAVYYCNAGPYGGNPFDYWGQGTQVTVSS | high polyreactivity |
| QVQLVESGGGLVQAGGSLRLSCAASGITLPVYGMGWYRQAPGKERELVAVIDIVGITNYADSVKGRFTISRDNAKNTVYLQMNSLKPEDTAVYYCAKRYVDLADGGEYYYWGQGTQVTVSS | low polyreactivity |

| Sequence | polyreactivity (PSR sort gate) |
| --- | --- |
| QVQLVESGGGLVQAGGSLRLSCAASGITLRRNAMGWYRQAPGKERELVAAISKSGGRTYYADSVKGRFTISRDHAKNTVYLQMNSLKPEDTAVYYCAADVPWAASDYWGQGTQVTVSS | high polyreactivity |
| QVQLVESGGGLVQAGGSLRLSCAASGITLRYYTMGWYRQPPGKERELVADISYRGGSTTYADSVKGRFTISRDNAKNTVYLQMNSLKPEDTAVYYCNARKRTFPSRSIGGDYWGQGTQVTVSS | high polyreactivity |
| QVQLVESGGGLVQAGGSLRLSCAASGITLSIYAMGWYRQAPGKERELVAAINGNGGSTYYADSVKGRFTISRDNAKNTVYLQMNSLKPEDTAVYYCAVTDYVYEHDDYWGQGTQVTVSS | low polyreactivity |
| QVQLVESGGGLVQAGGSLRLSCAASGITLTKNAMGWYRQAPGKERELVAGITRGSRTNYADSVKGRFTISRDNAKNTVYLQMNSLKPEDTAVYYCAASYGPYRGPVGGSKMYYWGQGTQVTVSS | high polyreactivity |
| QVQLVESGGGLVQAGGSLRLSCAASGITLTKNAMGWYRQAPGKERELVAGITRGSRTNYADSVKGRFTISRDNAKNTVYLQMNSLKPEDTAVYYCAASYWPYRGPVGGSKMYYWGQGTQVTVSS | high polyreactivity |
| QVQLVESGGGLVQAGGSLRLSCAASGITLTRYAMGWYRQAPGKDRELVAAISTGGGSTYYADSVKGRFTISRDNAKNTVYLQMNSLKPEDTAVYYCAARIRFARGYPITRTYDYWGQGTQVTVSS | high polyreactivity |
| QVQLVESGGGLVQAGGSLRLSCAASGITLVSYARGWYRQAPGKERELVAAISWSGGRTFYADSVKGRFTISRDNAKNTVYLQMNRLKPEDTAVYYCNTAQYPYFYSHVSYPHDYWGQGTQVTVSS | high polyreactivity |
| QVQLVESGGGLVQAGGSLRLSCAASGITLYEYAMGWYRQAPGKERELVAAMSTSGGRTRYADSVKGRFTISRDNAKNTVYLQMNSLKPEDTAVYYCNRLYGPGFKSVYGYDYWGQGTQVTVSS | high polyreactivity |
| QVQLVESGGGLVQAGGSLRLSCAASGITLYRYAMGWYRLAPGKERELVADISSGGGTTYYADSVKGRFTISRDNAKNTVYLQMNSLKPEDTAVYYCAADYGFRYPLYEFWGQGTQVTVSS | low polyreactivity |
| QVQLVESGGGLVQAGGSLRLSCAASGITPDYAMGWYRQAPGTERELVAAITWSGGRTYYADSVKGRFTISRDNAKNTVYLQMNSLKPEDTAVYYCAAEHYLGYDYWGQGTQVTVSS | low polyreactivity |
| QVQLVESGGGLVQAGGSLRLSCAASGITSFFYDMGWYRQAPGKERELVAGISSGGSTNYADSVKGRFTISRDNAKNTVYLQMNSLKPEDTAVSYCAKDYPHTVSLGEYDYWGQGTQVTVSS | high polyreactivity |
| QVQLVESGGGLVQAGGSLRLSCAASGITSHWYVMGWYRQAPGKERELVAAINSSGGRTSYADSVKGRFTISRDNAKNTVYLQMNSLKPEDTAVYYCAAGYTHSYFLGATGKVDYWGQGTQVTVSS | low polyreactivity |
| QVQLVESGGGLVQAGGSLRLSCAASGITSPSYAMGWYRQAPGKERELVAAISKNGVRTYYADSVKGRFTISRDNAKNTVYLQMNSLKPEDTAVYYCAARYNPLYATLYRRMDYWGQGTQVTVSS | high polyreactivity |
| QVQLVESGGGLVQAGGSLRLSCAASGITTTVYAMGWYRQAPGKERELVAGISWSTSSTYYADSVKGRFTISRDNAKNTVYLQMNSLKPEDNAVYYCAVYTITGRVLRQGPLYRHYYWGQGTQVTVSS | high polyreactivity |
| QVQLVESGGGLVQAGGSLRLSCAASGITYTDYDLGCYRQAPGKERELVAAISNGGGSTYYADSVKGRFTISRDNAKNTVYLQMNSLKPEDTGVYYWAAERVPSWWVEWGVAQWDDYWGQGTQVTVSS | low polyreactivity |
| QVQLVESGGGLVQAGGSLRLSCAASGITYYRYTMGWYRQAPGKDRELVASINWSGTRTYYADSVKGRFTISRDNAKNTVYLLMNSLKPEDTAVYYCAAKGAQGTSRRWFDYWGQGTQVTVSS | high polyreactivity |
| QVQLVESGGGLVQAGGSLRLSCAASGIYSYVMGWYRQAPGKERELVAAISGTGGRTYYADSVKGRFTISRDNAKNTVYLQMNSLKPEDTAVYYCAARGIYQPKTFDYWGQGTQVTVSS | high polyreactivity |
| QVQLVESGGGLVQAGGSLRLSCAASGKIFFRYTLGWYRQAPGKERELVAAISASGGSTYYADSVKGRFTISRDNAKNTVYLQMNSLKPEDTSVYYCAARILHYTSEYYYWGQGTQVTVSS | low polyreactivity |
| QVQLVESGGGLVQAGGSLRLSCAASGKIFYEYTMGWYRQAPGKERELVAAISWSGVSTYYADSVKGRFTISRDNAKNTVYLQMNSLKPEDTAVYYCAADRGNDYWGQGTQVTVSS | low polyreactivity |
| QVQLVESGGGLVQAGGSLRLSCAASGKTFPANAMGWYRPAPGKERELVADISVSDGSTYYADSVKGRFTISRDNAKNTVYLQMNSLKPQDTAVYYCNARKRPNFYVKSFTQIGGRFDYWGQGTQVTVSS | low polyreactivity |
| QVQLVESGGGLVQAGGSLRLSCAASGLDYYAMGWYRQAPGKERELVAAIDWSGVSTYYADSVKGRFTISRDNAKNSVYLQMNSLKPEDTAVYYCAALYDGWPRVSYGLGEYGYWGQGTQVTVSS | low polyreactivity |
